The experiment can be described thus: D-arabinitol oxidase enzyme activity assay (H2O2 formation coupled to horse radish peroxidase/TMB, absorbance at 650 nm). The class given is biochemical. Conditions: ratio of oxidase activity with sorbitol as substrate to DA as substrate; protein extracts from E. coli, 10 mM sugar alcohol, pH 6.5, 23° C. On the procedure:
The D-arabinitol oxidase enzyme activity is assayed by the formation of H2O2 during the enzyme reaction (FIG. 1) as coupled with a peroxidase indicator reaction that catalyzes the oxidation of 3,3′,5,5′-tetramethylbenzidine hydrochloride (TMB), producing a colored product. An increase in absorbance is a direct measure of D-arabinitol oxidase activity. Enzyme activity is assayed in crude extracts and in purified protein preparations. […] In this reaction, formation of H2O2 results in the formation of blue color measurable by reading the absorbance at 650 nanometers (nm). Absorbance at 650 nm is followed kinetically using a Tecan Rainbow spectrophotometer at room temperature (23° C.). Milli-absorbance units per minute (mA/min) are calculated as the increase in absorbance at 650 nm/minute×1000. It is recognized that researchers skilled in the art may perform the assay as an end-point assay, by stopping reactions at various times with a solution of acid to produce a yellow color, and reading the absorbance at 450 nm. […]
DNA sequences encoding an SaOx protein (SEQ ID NO:3) are used as starting material for error prone PCR. Error-prone PCR is accomplished by performing PCR from DNA templates using a non-proof reading DNA polymerase such as Taq Polymerase, or by using a GeneMorph II Random Mutagenesis Kit (Stratagene). […]

B1: SaOX (wild type + His-tag): Streptomyces avermitilis oxidase (SEQ ID NO:4), wild type with C-terminal His-tag (STOP423LEHHHHHH) (protein, listed as Streptomyces avermitilis)
chain: MTDAGTALTNWAGNITYSAKELHRPQSLDALRALVADSAKVRVLGSGHSFNEIAEPGADGVLLSLTALPPSVEVDTAARTVRVAGGVRYAELARVVHGHGLALPNMASLPHISVAGSVATGTHGSGVTNGSLASAVREVELVTADGSAVRIGRGDDRFDGAVTALGALGVVTALTLDLEPDYRVAQQVFTELPLAGLDFDAVAASAYSVSLFTGWRTSGFAQVWLKRRTDRPSADFPWAAPATEAMHPVPGMPAVNCTQQFGVPGPWHERLPHFRAEFTPSSGAELQSEYLLPRPYALDALHALDAVRETVAPVLQICEVRTVAADAQWLSPAYGRDTVALHFTWVEDLAAVLPVVRRVEEALDPFDPRPHWGKVFAVPARVLRGRYPRLGDFRALVDSLDPGGKFTNAFVREVLGSGDRPS
modifications: C-terminal LEHHHHHH His-tag
B1: the Sorb/DA was determined as 14.8.

The values are drawn from US20080254496A1, “Methods for Detection of Fungal Disease” (priority 2005, published 2008).
